Among the data in patent publication US20060063709A1 are DNA binding activity of NF-kB in EMSA (inhibitor assay) and reactivation of IkB-inactivated NF-kB DNA binding activity by DOC (EMSA) values, retold here.

The experiment deals with NF-kB from mouse cells (nuclear extracts of TPA-stimulated 70Z/3 pre-B cells; also nuclear extracts of the mouse B cell line WEHI 231; cytosolic precursor of 70Z/3) (mouse).

Turning to “IkB (protein inhibitor of NF-kB) prepared from cytosol of unstimulated mouse 70Z/3 pre-B cells”, the DNA binding activity of NF-kB in EMSA (inhibitor assay) was over 90% and the reactivation of IkB-inactivated NF-kB DNA binding activity by DOC (EMSA) is 66%.
